Measurements: patent publication US20260207725A1

Biological target: wild-type Pfs48/45 D3 (6C domain), glycosylated (Plasmodium falciparum) (UniProt Q8I6T1)
UniProt Q8I6T1, sequence (Q8I6T1 291-428, tags left off): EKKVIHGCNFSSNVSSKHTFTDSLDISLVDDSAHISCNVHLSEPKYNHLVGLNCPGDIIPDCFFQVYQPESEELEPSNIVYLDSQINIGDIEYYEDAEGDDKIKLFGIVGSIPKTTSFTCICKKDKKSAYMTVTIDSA

TB31F neutralizing monoclonal antibody (humanized version of mAb 85RF45.1) (from UniProt P0DOY2 1-106)
Kd: 2.5 nM
koff: 0.00082 s⁻¹
kon: 350000 M⁻¹ s⁻¹
